Data on two molecules can be found in patent US20200181278A1 (MITSUBISHI TANABE PHARMA, published 2020).

In the test the target is T1, mouse CD138 His (mouse, UniProt P18828 23-255, limits assumed).
T1 construct: also called mCD138; not shown: His tag
T1 sequence: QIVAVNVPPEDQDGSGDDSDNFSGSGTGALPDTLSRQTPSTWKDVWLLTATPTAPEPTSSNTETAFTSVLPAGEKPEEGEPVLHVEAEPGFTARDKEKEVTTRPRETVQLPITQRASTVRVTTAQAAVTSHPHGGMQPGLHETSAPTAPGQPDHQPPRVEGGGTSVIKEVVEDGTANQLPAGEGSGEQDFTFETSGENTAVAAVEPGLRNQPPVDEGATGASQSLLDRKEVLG
Kind of test: SPR, mouse CD138 His immobilised, antibody as analyte. As for the experimental part:
Murine IgGs were purified from the hybridoma supernatants and the IgGs were subject to SPR (surface plasmon resonance) for kinetic binding measurements. […] […] KDs were measured using bivalent analyte fit.

B1: F12P7G11 (antibody, V domains shown)
VH: QVQLQQSGAELARPGASVKLSCKASGYTFSSHWMQWVKQRPGQGLEWIGAIYPGDGDTRFTQKFKGKATLTADKSSNTAYMQLSSLASEDSAVYYCARGIYYDRSRAMDYWGQGTSVTVSS
VL: QIVLSQSPAILSASPGEKVTMTCRASSSVNYMHWYQQKPGSSPKHWIYATSYLASGVPARFSGSGSGTSYSLTISRVEAEDAATYYCQQWSSDPLTFGAGTKLELKR
notes: Murine IgG purified from hybridoma supernatant
As to B1, the binding result is reported as “no binding”.

B2: F11AP11E5 (antibody, V domains shown)
VH: QVQLQQSGAELVKPGASVKLSCKASGYTFTNYYMYWVKQRPGQGLEWIGEINPGNGGTNFNEKFKNKATLTVDKSSSTAYMQLSSLTSEDSAVYYCTTRFAYWGQGTLVIVSA
VL: DVVMTQTPLSLSVTIGQPASISCKSGQSLLYSNGKTYLTWLQQRPGQAPKLLMYQVSKLDPGIPDRFSGSGSETDFTLKISRVEAEDLGVYYCLQNTYYPHTFGAGTKLELKR
notes: as for B1
Turning to B2, the binding result is listed as “no binding”.
